In patent publication US20100292443A1 (published 2010):

Molecular target: T1, protein A (immobilized on a protein A column) (UniProt P38507 37-327)
T1 construct: Other paragraphs mention recombinant protein A on agarose and ProSep-vA-Ultra resin; also called protein A resin
Assay: protein A column equilibrated with 20 mM TRIS pH 8, after papain digestion
Procedure: Purified, intact anti-S1P IgG was digested with activated papain (incubated 10 mg/ml papain in 5.5 mM cysteine-HCL, 1 mM EDTA, 70 μM 2-mercaptoethanol for 0.5 hours at 37° C.) in digestion buffer (100:1 LT1009:papain in 50 mM sodium phosphate pH 7.2, 2 mM EDTA). After 2 hours at 37° C., the protease reaction was quenched with 50 mM iodoacetamide, dialyzed against 20 mM TRIS pH 9, and loaded onto 2×5 ml HiTrap Q columns. The bound protein was eluted with a linear gradient of 20 mM TRIS pH 8, 0.5 M NaCl and collected in 4 ml fractions. The fractions containing the anti-S1P Fab fragment were pooled and loaded onto a protein A column equilibrated with 20 mM TRIS pH 8. The intact antibody and the Fc fragment bound to the resin, while the Fab fragment was present in the flow through fraction. The Fab fragment was concentrated using a centricon-YM30 centrifugal concentrator (Millipore, Cat No 4209), dialyzed against 25 mM HEPES pH 7, and stored at 4° C.

B1: LT1009 Fab fragment (anti-S1P Fab fragment, from papain digestion) (Fab)
heavy: EVQLVQSGAEVKKPGESLKISCQSFGYIFIDHTIHWMRQMPGQGLEWMGAISPRHDITKYNEMFRGQVTISADKSSSTAYLQWSSLKASDTAMYFCARGGFYGSTIWFDFWGQGTMVTVSSASTKGPSVFPLAPSSKSTSGGTAALGCLVKDYFPEPVTVSWNSGALTSGVHTFPAVLQSSGLYSLSSVVTVPSSSLGTQTYICNVNHKPSNTKVDKRVEPKSCDKTH
light: ETTVTQSPSFLSASVGDRVTITCITTTDIDDDMNWFQQEPGKAPKLLISEGNILRPGVPSRFSSSGYGTDFTLTISKLQPEDFATYYCLQSDNLPFTFGQGTKLEIKRTVAAPSVFIFPPSDEQLKSGTASVVCLLNNFYPREAKVQWKVDNALQSGNSQESVTEQDSKDSTYSLSSTLTLSKADYEKHKVYACEVTHQGLSSPVTKSFNRGEC
- binding result: no binding
